Drawing on patent US20220333113, this text covers Kd for 13 sequences.

For the first data set, the target named is T1, RIG-I CTD (aa 792-925) (Homo sapiens) (UniProt O95786).
T1 sequence: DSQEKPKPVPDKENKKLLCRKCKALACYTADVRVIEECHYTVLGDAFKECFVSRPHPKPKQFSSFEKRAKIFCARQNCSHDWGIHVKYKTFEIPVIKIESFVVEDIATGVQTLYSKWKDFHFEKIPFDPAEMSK
The experiment in a line: EMSA. The note with it: J = 5-(N-3-phenylpropylcarboxyamide)-2'-deoxyuridine (PPdU) at every J (n in listing); SB18T0.01 (5 mM MgCl2) + 20% glycerol, 1 mM DTT, 37 C.
With “ATCTCTGTGTCATGTGTTTTAATGTCAGTTTAATGATGAGGGACGGGCAG [14832-55_3]”, the Kd was 0.0072 nM.

The same data set, now with this note: J = PPdU at every J; SB18T0.01 + 20% glycerol, 1 mM DTT, 37 C.
As to “TGTGTCATGTGTTTTAATGTCAGTTTAATGATGAGG [14832-55_13]”, the Kd amounted to 4.3 nM.

In the case of “ATCTCTGTGTCATGTGTTTTAATGTCAGTTTAATGATGAGGGAC [14832-55_7]”, the Kd was found to be 0.011 nM.

Consider “TCTGTGTCATGTGTTTTAATGTCAGTTTAATGATGAG [14832-55_14]”, for which the Kd is 0.066 nM.

Consider “GTGTCATGTGTTTTAATGTCAGTTTAATGATGAGGGACGGGCAG [14832-55_5]”, for which the Kd is 36 nM.

Regarding “TCTGTGTCATGTGTTTTAATGTCAGTTTAATGATGAGGGACGGGCAG [14832-55_4]”, the Kd was determined as 0.084 nM.

With “TCTGTGTCATGTGTTTTAATGTCAGTTTAATGATGAGG [14832-55_11]”, the dissociation constant Kd was found to be 0.068 nM.

As to “ATCTCTGTGTCATGTGTTTTAATGTCAGTTTAATG [14832-55_10]”, the dissociation constant (Kd) is 1.5 nM.

Regarding “ATCTCTGTGTCATGTGTTTTAATGTCAGTTTAATGATGAGGGACGGG [14832-55_6]”, the Kd came out at 0.018 nM.

For the sequence “TCTGTGTCATGTGTTTTAATGTCAGTTTAATGATGA [14832-55_15]”, the equilibrium dissociation constant (Kd) stood at 0.063 nM.

As for “CTGTGTCATGTGTTTTAATGTCAGTTTAATGATGAGG [14832-55_12]”, the Kd stood at 0.34 nM.

For “ATCTCTGTGTCATGTGTTTTAATGTCAGTTTAATGATG [14832-55_9]”, the Kd was 0.15 nM.

In another data set the target is T2, RIG-I WT full-length (Homo sapiens) (UniProt O95786).
T2 sequence: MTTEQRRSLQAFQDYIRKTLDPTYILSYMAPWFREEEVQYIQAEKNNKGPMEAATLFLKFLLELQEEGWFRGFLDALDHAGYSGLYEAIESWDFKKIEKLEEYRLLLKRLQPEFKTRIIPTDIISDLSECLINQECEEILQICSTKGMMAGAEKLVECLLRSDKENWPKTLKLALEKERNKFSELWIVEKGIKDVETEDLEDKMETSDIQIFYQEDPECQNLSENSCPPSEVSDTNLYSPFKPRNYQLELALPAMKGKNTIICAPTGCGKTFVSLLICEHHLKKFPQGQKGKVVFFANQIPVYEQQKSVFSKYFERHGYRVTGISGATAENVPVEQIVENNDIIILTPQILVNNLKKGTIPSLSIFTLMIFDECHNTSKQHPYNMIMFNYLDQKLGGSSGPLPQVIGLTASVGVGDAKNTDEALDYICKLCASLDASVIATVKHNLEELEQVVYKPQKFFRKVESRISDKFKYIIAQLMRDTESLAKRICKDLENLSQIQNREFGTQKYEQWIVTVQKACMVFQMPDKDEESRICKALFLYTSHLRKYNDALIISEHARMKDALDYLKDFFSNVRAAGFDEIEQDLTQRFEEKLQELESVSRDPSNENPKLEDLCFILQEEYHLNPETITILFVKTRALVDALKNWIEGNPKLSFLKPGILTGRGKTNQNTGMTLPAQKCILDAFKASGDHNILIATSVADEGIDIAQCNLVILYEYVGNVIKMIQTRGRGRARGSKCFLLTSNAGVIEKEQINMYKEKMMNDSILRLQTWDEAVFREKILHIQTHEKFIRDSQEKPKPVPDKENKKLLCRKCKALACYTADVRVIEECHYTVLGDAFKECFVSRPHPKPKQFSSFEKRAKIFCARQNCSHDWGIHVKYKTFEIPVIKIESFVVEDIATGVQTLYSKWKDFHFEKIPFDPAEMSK
Put plainly: filter. The conditions noted are these: J = 5-(N-3-phenylpropylcarboxyamide)-2'-deoxyuridine (PPdU) at every J (n in listing); SB18T0.01 (5 mM MgCl2) + 1 mM DTT, 37 C.
In the case of “ATCTCTGTGTCATGTGTTTTAATGTCAGTTTAATGATGAGGGACGGGCAG [14832-55_3]”, the Kd was 0.024 nM.

Still in this data set, the particulars now being: J = PPdU at every J; SB18T0.01 + 1 mM DTT, 37 C.
As to “ATCTCCGGGAACACTGTCTGATTAATGTCTTGTAAGCGGGTTTTCGGCAG [14833-10_3]”, the Kd turned out to be 12 nM.
